Measurements reported in publication PMC9482650, “Quantitative fragmentomics allow affinity mapping of interactomes” (Nature Communications, 2022).
Where a chain is given by its changes, count along the chain named. One block for each binder: values may come before it.

How the values were obtained:
Test in all cases: holdup assay
Parameters in all cases: key: below the threshold = too weak to quantify, mostly under pKd 3.1 to 4
AHNAK1, Q09666 = molecular target: AHNAK1, Q09666
APBA1_2, Q02410 = molecular target: T1, APBA1_2, Q02410
T1 sequence (Q02410 742-832, limits assumed, looked up): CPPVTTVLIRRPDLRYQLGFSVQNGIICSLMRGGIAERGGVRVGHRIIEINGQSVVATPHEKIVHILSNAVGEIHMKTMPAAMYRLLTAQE

ARHGEF11, O15085 = molecular target: T2, ARHGEF11, O15085
T2 sequence (O15085 42-136, limits assumed, looked up): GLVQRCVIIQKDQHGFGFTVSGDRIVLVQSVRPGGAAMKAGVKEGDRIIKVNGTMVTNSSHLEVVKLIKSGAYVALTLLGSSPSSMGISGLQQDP

DLG1_1, Q12959 = molecular target: DLG1_1, Q12959
DLG2_3, Q15700 = molecular target: DLG2_3, Q15700
DLG4_2, P78352 = molecular target: DLG4_2, P78352
FRMPD1, Q5SYB0 = molecular target: T3, FRMPD1, Q5SYB0
T3 sequence (Q5SYB0 52-145, limits assumed, looked up): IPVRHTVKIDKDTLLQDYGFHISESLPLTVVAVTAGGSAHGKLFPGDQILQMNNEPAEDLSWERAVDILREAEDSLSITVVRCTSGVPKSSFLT

FRMPD2_2, Q68DX3 = molecular target: FRMPD2_2, Q68DX3
FRMPD4, Q14CM0 = molecular target: FRMPD4, Q14CM0
GORASP2, Q9H8Y8 = molecular target: GORASP2, Q9H8Y8
GRASP, Q7Z6J2 = molecular target: GRASP, Q7Z6J2
GRID2IP_1, A4D2P6 = molecular target: GRID2IP_1, A4D2P6
GRIP1_3, Q9Y3R0 = molecular target: T4, GRIP1_3, Q9Y3R0
T4 sequence (Q9Y3R0 247-346, limits assumed, looked up): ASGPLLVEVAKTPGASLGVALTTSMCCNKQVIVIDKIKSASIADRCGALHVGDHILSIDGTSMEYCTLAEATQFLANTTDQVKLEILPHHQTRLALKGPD

GRIP1_7, Q9Y3R0 = molecular target: T5, GRIP1_7, Q9Y3R0
T5 sequence (Q9Y3R0 999-1096, limits assumed, looked up): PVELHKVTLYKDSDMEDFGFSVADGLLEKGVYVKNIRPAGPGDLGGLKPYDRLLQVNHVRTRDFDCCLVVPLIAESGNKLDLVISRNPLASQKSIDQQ

GRIP2_5, Q9C0E4 = molecular target: GRIP2_5, Q9C0E4
Inadl_1, Q8NI35 = molecular target: Inadl_1, Q8NI35
Inadl_10, Q8NI35 = molecular target: Inadl_10, Q8NI35
LIN7A, O14910 = molecular target: T6, LIN7A, O14910
T6 sequence (O14910 103-200, limits assumed, looked up): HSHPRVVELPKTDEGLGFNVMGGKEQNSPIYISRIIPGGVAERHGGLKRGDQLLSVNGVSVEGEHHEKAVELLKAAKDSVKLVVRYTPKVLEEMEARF

LIN7B, Q9HAP6 = molecular target: T7, LIN7B, Q9HAP6
T7 sequence (Q9HAP6 88-185, limits assumed, looked up): T6 sequence (O14910 103-200, limits assumed, looked up) with S2A, V20I, I35V, E42D, H65Q, K77Q, D78G, K89R

MAGI2_3, Q86UL8 = molecular target: MAGI2_3, Q86UL8
MPP2, Q14168 = molecular target: T8, MPP2, Q14168
T8 sequence (Q14168 180-250, limits assumed, looked up): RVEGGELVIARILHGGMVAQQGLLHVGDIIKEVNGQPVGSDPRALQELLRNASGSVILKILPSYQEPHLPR

NHERF4_1, Q86UT5-2 = molecular target: NHERF4_1, Q86UT5-2
NHERF4_4, Q86UT5 = molecular target: NHERF4_4, Q86UT5
PCLO, Q9Y6V0 = molecular target: T9, PCLO, Q9Y6V0
T9 sequence (Q9Y6V0 4491-4600, limits assumed, looked up): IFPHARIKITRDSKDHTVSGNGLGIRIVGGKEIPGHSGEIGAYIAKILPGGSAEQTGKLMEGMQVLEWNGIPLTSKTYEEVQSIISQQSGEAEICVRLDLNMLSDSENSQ

PTPN3, P26045 = molecular target: PTPN3, P26045
SNTG2, Q9NY99 = molecular target: T10, SNTG2, Q9NY99
T10 sequence (Q9NY99 68-166, limits assumed, looked up): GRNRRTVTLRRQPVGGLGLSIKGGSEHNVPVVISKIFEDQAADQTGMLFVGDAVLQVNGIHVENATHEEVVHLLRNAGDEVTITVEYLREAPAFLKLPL

TX1BP3, O14907 = molecular target: T11, TX1BP3, O14907
T11 sequence (O14907 10-122, limits assumed, looked up): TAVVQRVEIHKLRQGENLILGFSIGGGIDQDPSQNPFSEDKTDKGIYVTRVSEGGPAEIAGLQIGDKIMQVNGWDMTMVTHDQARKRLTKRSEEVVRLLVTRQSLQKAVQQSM

[1] = plain residues with an end cap or a label only (N-terminal biotin on a linker: ado-ado)
[2] = plain residues with an end cap or a label only (N-terminal biotin on a linker: ttds)
[3] = plain residues with an end cap or a label only (N-terminal biotin on a linker: ahx)

Sequence of AHNAK1, Q09666 (Q09666 4-100): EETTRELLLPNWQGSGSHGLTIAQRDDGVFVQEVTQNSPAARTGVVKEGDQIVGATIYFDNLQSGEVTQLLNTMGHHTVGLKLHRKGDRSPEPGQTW
Sequence of Inadl_1, Q8NI35 (Q8NI35 113-229): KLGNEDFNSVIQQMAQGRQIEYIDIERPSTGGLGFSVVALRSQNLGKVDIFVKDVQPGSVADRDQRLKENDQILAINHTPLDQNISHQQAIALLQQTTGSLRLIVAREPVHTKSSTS
Sequence of FRMPD2_2, Q68DX3 (Q68DX3 944-1038): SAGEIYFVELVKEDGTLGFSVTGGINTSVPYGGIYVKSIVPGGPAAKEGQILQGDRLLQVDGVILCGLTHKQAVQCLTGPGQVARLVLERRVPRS
Sequence of GRIP2_5, Q9C0E4 (Q9C0E4 544-642): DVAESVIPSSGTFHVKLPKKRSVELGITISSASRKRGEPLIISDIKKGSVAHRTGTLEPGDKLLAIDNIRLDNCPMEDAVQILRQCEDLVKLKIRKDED
Sequence of NHERF4_4, Q86UT5 (Q86UT5 464-550): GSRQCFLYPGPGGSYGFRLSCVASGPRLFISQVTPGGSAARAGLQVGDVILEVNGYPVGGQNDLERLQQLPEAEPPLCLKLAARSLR
Sequence of FRMPD4, Q14CM0 (Q14CM0 67-160): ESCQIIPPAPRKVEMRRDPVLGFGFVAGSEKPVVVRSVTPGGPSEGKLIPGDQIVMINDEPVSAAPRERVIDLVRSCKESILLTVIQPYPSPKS
Sequence of Inadl_10, Q8NI35 (Q8NI35 1673-1763): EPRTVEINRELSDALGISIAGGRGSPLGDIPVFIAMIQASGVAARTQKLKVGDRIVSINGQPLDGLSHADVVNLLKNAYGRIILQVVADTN
Sequence of MAGI2_3, Q86UL8 (Q86UL8 600-682): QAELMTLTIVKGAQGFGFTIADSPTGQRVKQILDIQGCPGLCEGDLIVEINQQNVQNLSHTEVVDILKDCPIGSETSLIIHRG
Sequence of NHERF4_1, Q86UT5-2 (Q86UT5 other isoform, or with tags, fused parts or gaps): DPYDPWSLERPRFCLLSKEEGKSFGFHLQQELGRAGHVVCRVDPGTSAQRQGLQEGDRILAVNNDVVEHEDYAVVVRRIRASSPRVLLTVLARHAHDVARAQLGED
Sequence of GRID2IP_1, A4D2P6 (A4D2P6 1-87): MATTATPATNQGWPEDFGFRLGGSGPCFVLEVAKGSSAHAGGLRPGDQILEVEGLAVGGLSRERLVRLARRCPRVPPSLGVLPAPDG
Sequence of DLG4_2, P78352 (P78352 155-259): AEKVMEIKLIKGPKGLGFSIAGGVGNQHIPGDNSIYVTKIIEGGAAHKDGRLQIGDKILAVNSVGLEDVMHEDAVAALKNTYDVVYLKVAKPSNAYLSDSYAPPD
Sequence of PTPN3, P26045 (P26045 505-587): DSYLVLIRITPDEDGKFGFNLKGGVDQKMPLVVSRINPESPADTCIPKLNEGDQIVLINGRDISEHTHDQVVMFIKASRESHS
Sequence of GRASP, Q7Z6J2 (Q7Z6J2 96-193): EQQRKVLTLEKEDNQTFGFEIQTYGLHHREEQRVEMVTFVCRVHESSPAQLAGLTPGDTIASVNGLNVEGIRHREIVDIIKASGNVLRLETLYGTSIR

- pKd (AHNAK1, Q09666; [1]): below the threshold
- pKd (APBA1_2, Q02410; [1]): below the threshold
- pKd (ARHGEF11, O15085; [1]): below the threshold
- pKd (DLG1_1, Q12959; [1]): below the threshold
- pKd (DLG2_3, Q15700; [1]): below the threshold
- pKd (DLG4_2, P78352; [1]): below the threshold
- pKd (FRMPD1, Q5SYB0; [1]): below the threshold
- pKd (FRMPD2_2, Q68DX3; [1]): below the threshold
- pKd (FRMPD4, Q14CM0; [1]): below the threshold
- pKd (GORASP2, Q9H8Y8; [1]): below the threshold
- pKd (GRASP, Q7Z6J2; [1]): below the threshold
- pKd (GRID2IP_1, A4D2P6; [1]): below the threshold
- pKd (GRIP1_3, Q9Y3R0; [1]): below the threshold
- pKd (GRIP1_7, Q9Y3R0; [1]): below the threshold
- pKd (GRIP2_5, Q9C0E4; [1]): below the threshold
- pKd (Inadl_1, Q8NI35; [1]): below the threshold
- pKd (Inadl_10, Q8NI35; [1]): below the threshold
- pKd (LIN7A, O14910; [1]): below the threshold
- pKd (LIN7B, Q9HAP6; [1]): below the threshold
- pKd (MAGI2_3, Q86UL8; [1]): below the threshold
- pKd (MPP2, Q14168; [1]): below the threshold
- pKd (NHERF4_1, Q86UT5-2; [1]): below the threshold
- pKd (NHERF4_4, Q86UT5; [1]): below the threshold
- pKd (PCLO, Q9Y6V0; [1]): below the threshold
- pKd (PTPN3, P26045; [1]): 4.25
- pKd (SNTG2, Q9NY99; [1]): below the threshold
- pKd (TX1BP3, O14907; [1]): below the threshold
Binder: EKPIDSETKM [SLC1A3, P43003]

- pKd (AHNAK1, Q09666; [2]): below the threshold
- pKd (APBA1_2, Q02410; [2]): 3.32
- pKd (ARHGEF11, O15085; [2]): below the threshold
- pKd (DLG1_1, Q12959; [2]): 3.79
- pKd (DLG2_3, Q15700; [2]): 4.64
- pKd (DLG4_2, P78352; [2]): 4.58
- pKd (FRMPD1, Q5SYB0; [2]): below the threshold
- pKd (FRMPD2_2, Q68DX3; [2]): 3.31
- pKd (FRMPD4, Q14CM0; [2]): below the threshold
- pKd (GORASP2, Q9H8Y8; [2]): below the threshold
- pKd (GRASP, Q7Z6J2; [2]): below the threshold
- pKd (GRID2IP_1, A4D2P6; [2]): below the threshold
- pKd (GRIP1_3, Q9Y3R0; [2]): below the threshold
- pKd (GRIP1_7, Q9Y3R0; [2]): 3.49
- pKd (GRIP2_5, Q9C0E4; [2]): below the threshold
- pKd (Inadl_1, Q8NI35; [2]): below the threshold
- pKd (Inadl_10, Q8NI35; [2]): below the threshold
- pKd (LIN7A, O14910; [2]): below the threshold
- pKd (LIN7B, Q9HAP6; [2]): 3.49
- pKd (MAGI2_3, Q86UL8; [2]): below the threshold
- pKd (MPP2, Q14168; [2]): below the threshold
- pKd (NHERF4_1, Q86UT5-2; [2]): 3.36
- pKd (NHERF4_4, Q86UT5; [2]): below the threshold
- pKd (PCLO, Q9Y6V0; [2]): below the threshold
- pKd (PTPN3, P26045; [2]): 4.75
- pKd (SNTG2, Q9NY99; [2]): 4.32
- pKd (TX1BP3, O14907; [2]): 4.23
Binder: PSRDRKETSI [RALBP1, Q15311]

More lines, now with the values behind:

Binder: VNENQKEYFF [CNTNAP4, Q9C0A0]
- pKd (AHNAK1, Q09666; [3]): below the threshold
- pKd (APBA1_2, Q02410; [3]): 4.47
- pKd (ARHGEF11, O15085; [3]): below the threshold
- pKd (DLG1_1, Q12959; [3]): below the threshold
- pKd (DLG2_3, Q15700; [3]): below the threshold
- pKd (DLG4_2, P78352; [3]): below the threshold
- pKd (FRMPD1, Q5SYB0; [3]): below the threshold
- pKd (FRMPD2_2, Q68DX3; [3]): below the threshold
- pKd (FRMPD4, Q14CM0; [3]): 4.65
- pKd (GORASP2, Q9H8Y8; [3]): below the threshold
- pKd (GRASP, Q7Z6J2; [3]): below the threshold
- pKd (GRID2IP_1, A4D2P6; [3]): below the threshold
- pKd (GRIP1_3, Q9Y3R0; [3]): below the threshold
- pKd (GRIP1_7, Q9Y3R0; [3]): 4.14
- pKd (GRIP2_5, Q9C0E4; [3]): below the threshold
- pKd (Inadl_1, Q8NI35; [3]): 3.72
- pKd (Inadl_10, Q8NI35; [3]): below the threshold
- pKd (LIN7A, O14910; [3]): below the threshold
- pKd (LIN7B, Q9HAP6; [3]): below the threshold
- pKd (MAGI2_3, Q86UL8; [3]): below the threshold
- pKd (MPP2, Q14168; [3]): below the threshold
- pKd (NHERF4_1, Q86UT5-2; [3]): 3.51
- pKd (NHERF4_4, Q86UT5; [3]): 4.1
- pKd (PCLO, Q9Y6V0; [3]): below the threshold
- pKd (PTPN3, P26045; [3]): 4.55
- pKd (SNTG2, Q9NY99; [3]): below the threshold
- pKd (TX1BP3, O14907; [3]): below the threshold

Binder: DAAHHDESNC [FMNL3, Q8IVF7]
- pKd (AHNAK1, Q09666; [1]): below the threshold
- pKd (APBA1_2, Q02410; [1]): below the threshold
- pKd (ARHGEF11, O15085; [1]): below the threshold
- pKd (DLG1_1, Q12959; [1]): below the threshold
- pKd (DLG2_3, Q15700; [1]): 3.62
- pKd (DLG4_2, P78352; [1]): below the threshold
- pKd (FRMPD1, Q5SYB0; [1]): below the threshold
- pKd (FRMPD2_2, Q68DX3; [1]): below the threshold
- pKd (FRMPD4, Q14CM0; [1]): below the threshold
- pKd (GORASP2, Q9H8Y8; [1]): below the threshold
- pKd (GRASP, Q7Z6J2; [1]): below the threshold
- pKd (GRID2IP_1, A4D2P6; [1]): below the threshold
- pKd (GRIP1_3, Q9Y3R0; [1]): below the threshold
- pKd (GRIP1_7, Q9Y3R0; [1]): below the threshold
- pKd (GRIP2_5, Q9C0E4; [1]): below the threshold
- pKd (Inadl_1, Q8NI35; [1]): below the threshold
- pKd (Inadl_10, Q8NI35; [1]): below the threshold
- pKd (LIN7A, O14910; [1]): below the threshold
- pKd (LIN7B, Q9HAP6; [1]): below the threshold
- pKd (MAGI2_3, Q86UL8; [1]): below the threshold
- pKd (MPP2, Q14168; [1]): below the threshold
- pKd (NHERF4_1, Q86UT5-2; [1]): below the threshold
- pKd (NHERF4_4, Q86UT5; [1]): below the threshold
- pKd (PCLO, Q9Y6V0; [1]): below the threshold
- pKd (PTPN3, P26045; [1]): below the threshold
- pKd (SNTG2, Q9NY99; [1]): below the threshold
- pKd (TX1BP3, O14907; [1]): below the threshold
